Test results taken from patent US20250388669A1 (published 2025).

Legend:
CD3 = CD3 (human); experiment: CD3 binding, as described in Example 2 (ELISA or FCM)
PD-1 (binding assay) = PD-1 (binding assay) (UniProt Q15116 25-167, limits assumed); experiment: FCM or ELISA, graded
B7H3 = target: T1, B7H3 (human, UniProt Q5ZPR3 29-466, limits assumed); experiment: FCM or ELISA
T1 construct: Tumor associated antigen; also called huB7H3
T1 sequence (looked up): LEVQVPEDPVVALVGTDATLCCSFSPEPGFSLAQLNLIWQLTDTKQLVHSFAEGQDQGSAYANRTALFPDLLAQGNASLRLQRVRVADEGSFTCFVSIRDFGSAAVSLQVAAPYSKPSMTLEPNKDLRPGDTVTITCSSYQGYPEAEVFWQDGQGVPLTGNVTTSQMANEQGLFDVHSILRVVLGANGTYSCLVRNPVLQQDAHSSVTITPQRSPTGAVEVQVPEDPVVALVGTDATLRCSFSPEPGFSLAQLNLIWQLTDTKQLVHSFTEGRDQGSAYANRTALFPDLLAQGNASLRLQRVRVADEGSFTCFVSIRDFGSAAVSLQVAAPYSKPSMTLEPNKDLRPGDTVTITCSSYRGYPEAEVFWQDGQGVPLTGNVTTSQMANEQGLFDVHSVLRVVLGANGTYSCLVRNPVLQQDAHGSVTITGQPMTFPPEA

Sequence of CD3 (human) (chain, as listed by the source): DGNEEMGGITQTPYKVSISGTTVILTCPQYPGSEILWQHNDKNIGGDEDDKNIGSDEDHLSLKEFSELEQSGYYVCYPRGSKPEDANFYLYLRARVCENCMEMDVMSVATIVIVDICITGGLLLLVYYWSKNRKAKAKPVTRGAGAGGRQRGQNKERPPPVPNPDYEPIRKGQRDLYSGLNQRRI
Sequence of PD-1 (binding assay) (Q15116 25-167 limits assumed): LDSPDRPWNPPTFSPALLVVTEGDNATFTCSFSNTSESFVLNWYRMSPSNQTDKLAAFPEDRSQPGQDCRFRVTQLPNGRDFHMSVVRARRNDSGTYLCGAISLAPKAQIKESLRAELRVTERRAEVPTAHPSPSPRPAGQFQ

B1: Ly2278 (bispecific antibody)
chain 1: QVQLQQSGAELVRPGSSVKISCKASGYAFSSYWMNWVKQRPGQGLEWIGQIWPGDGDTNYNGKFKGKATLTADESSSTAYMQLSSLASEDSAVYFCARRETTTVGRYYYAMDYWGQGTTVTVSSASTKGPSVFPLAPSSKSTSGGTAALGCLVKDYFPEPVTVSWNSGALTSGVHTFPAVLQSSGLYSLSSVVTVPSSSLGTQTYICNVNHKPSNTKVDKKVEPKSCGGGGSGGGGSGGGGSGGGGSEVQLVESGGGLVQPGGSLRLSCAASGFTFSTYAMNWVRQAPGKGLEWVGRIRSKYNNYATYYADSVKGRFTISRDDSKNSLYLQMNSLKTEDTAVYYCVRHGNFGNSYVSWFAYWGQGTLVTVSSGGGGSDKTHTCPPCPAPEAAGPSVFLFPPKPKDTLMISRTPEVTCVVVDVSHEDPEVKFNWYVDGVEVHNAKTKPREEQYNSTYRVVSVLTVLHQDWLNGKEYKCKVSNKALPAPIEKTISKAKGQPREPQVYTLPPSREEMTKNQVSLWCLVKGFYPSDIAVEWESNGQPENNYKTTPPVLDSDGSFFLYSKLTVDKSRWQQGNVFSCSVMHEALHNHYTQKSLSLSPG
chain 2: QVQLQQSGAELVRPGSSVKISCKASGYAFSSYWMNWVKQRPGQGLEWIGQIWPGDGDTNYNGKFKGKATLTADESSSTAYMQLSSLASEDSAVYFCARRETTTVGRYYYAMDYWGQGTTVTVSSASTKGPSVFPLAPSSKSTSGGTAALGCLVKDYFPEPVTVSWNSGALTSGVHTFPAVLQSSGLYSLSSVVTVPSSSLGTQTYICNVNHKPSNTKVDKKVEPKSCGGGGSGGGGSGGGGSGGGGSQAVVTQEPSLTVSPGGTVTLTCRSSTGAVTTSNYANWVQQKPGQAPRGLIGGTNKRAPWTPARFSGSLLGGKAALTITGAQAEDEADYYCALWYSNLWVFGGGTKLTVLGGGGSDKTHTCPPCPAPEAAGPSVFLFPPKPKDTLMISRTPEVTCVVVDVSHEDPEVKFNWYVDGVEVHNAKTKPREEQYNSTYRVVSVLTVLHQDWLNGKEYKCKVSNKALPAPIEKTISKAKGQPREPQVYTLPPSREEMTKNQVSLSCAVKGFYPSDIAVEWESNGQPENNYKTTPPVLDSDGSFFLVSKLTVDKSRWQQGNVFSCSVMHEALHNRFTQKSLSLSPG
light: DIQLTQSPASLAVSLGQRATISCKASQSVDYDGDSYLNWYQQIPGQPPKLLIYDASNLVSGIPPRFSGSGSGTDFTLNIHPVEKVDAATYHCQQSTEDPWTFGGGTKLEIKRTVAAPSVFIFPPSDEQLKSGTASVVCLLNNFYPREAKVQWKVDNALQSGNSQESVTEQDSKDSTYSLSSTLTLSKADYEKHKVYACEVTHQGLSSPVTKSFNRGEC
notes: CD19 Fabs, central CD3 Fv
Question: With B1 as the binder, how does the EC50 (CD3) read?
Answer: 1.46 µg/mL

B2: Ly2281 (bispecific antibody)
heavy 1: QVTLKESGPALVKPTQTLTLTCTFSGFSLSTSGTCVSWIRQPPGKALEWLATICWEDSKGYNPSLKSRLTISKDTSKNQAVLTMTNMDPVDTATYYCARREDSGYFWFPYWGQGTLVTVSSASTKGPSVFPLAPSSKSTSGGTAALGCLVKDYFPEPVTVSWNSGALTSGVHTFPAVLQSSGLYSLSSVVTVPSSSLGTQTYICNVNHKPSNTKVDKKVEPKSCGGGGSGGGGSGGGGSGGGGSQVQLVQSGAEVKKPGASVKVSCKASGYTFAGFEMHWVRQAPGQGLEWMGAIDPKTGGTDYNQKFKDRVTMTRDTSISTAYMELSRLRSDDTAVYYCARDLGYFDVWGQGTLVTVSSGGGGSDKTHTCPPCPAPEAAGPSVFLFPPKPKDTLMISRTPEVTCVVVDVSHEDPEVKFNWYVDGVEVHNAKTKPREEQYNSTYRVVSVLTVLHQDWLNGKEYKCKVSNKALPAPIEKTISKAKGQPREPQVYTLPPSREEMTKNQVSLWCLVKGFYPSDIAVEWESNGQPENNYKTTPPVLDSDGSFFLYSKLTVDKSRWQQGNVFSCSVMHEALHNHYTQKSLSLSPG
heavy 2: QVTLKESGPALVKPTQTLTLTCTFSGFSLSTSGTCVSWIRQPPGKALEWLATICWEDSKGYNPSLKSRLTISKDTSKNQAVLTMTNMDPVDTATYYCARREDSGYFWFPYWGQGTLVTVSSASTKGPSVFPLAPSSKSTSGGTAALGCLVKDYFPEPVTVSWNSGALTSGVHTFPAVLQSSGLYSLSSVVTVPSSSLGTQTYICNVNHKPSNTKVDKKVEPKSCGGGGSGGGGSGGGGSGGGGSDIQMTQSPSSLSASVGDRVTITCRASQDIRSNLNWYQQKPGGAVKLLIYYTSRLHSGVPSRFSGSGSGTDYTLTISSLQPEDFATYFCQQSEKLPRTFGGGTKVEIRGGGGSDKTHTCPPCPAPEAAGPSVFLFPPKPKDTLMISRTPEVTCVVVDVSHEDPEVKFNWYVDGVEVHNAKTKPREEQYNSTYRVVSVLTVLHQDWLNGKEYKCKVSNKALPAPIEKTISKAKGQPREPQVYTLPPSREEMTKNQVSLSCAVKGFYPSDIAVEWESNGQPENNYKTTPPVLDSDGSFFLVSKLTVDKSRWQQGNVFSCSVMHEALHNRFTQKSLSLSPG
light: NIQMTQSPSSLSASVGDRVTITCKAGQNVNNYLAWYQQKPGKAPKVLIFNANSLQTGVPSRFSGSGSGTDFTLTISSLQPEDFATYYCQQYNSWPTFGGGTKVEIKRTVAAPSVFIFPPSDEQLKSGTASVVCLLNNFYPREAKVQWKVDNALQSGNSQESVTEQDSKDSTYSLSSTLTLSKADYEKHKVYACEVTHQGLSSPVTKSFNRGEC
notes: PD-1 Fabs (Ly516) x central CD137 Fv
Question: Does B2 bind (PD-1 (binding assay))?
Answer: binds

B3: Ly305 (antibody, V domains shown)
VH: EVQLVESGGGLVQPGGSLRLSCAASGFTFSTYAMNWVRQAPGKGLEWVGRIRSKYNNYATYYADSVKGRFTISRDDSKNSLYLQMNSLKTEDTAVYYCVRHGNFGNSYVSWFAYWGQGTLVTVSS
VL: QAVVTQEPSLTVSPGGTVTLTCRSSTGAVTTSNYANWVQQKPGQAPRGLIGGTNKRAPWTPARFSGSLLGGKAALTITGAQAEDEADYYCALWYSNLWVFGGGTKLTVL
notes: Parent mAb; also called Anti-CD3 Ly305; parent anti-CD3 mAb
Question: For B3, which EC50 (CD3) is on record?
Answer: 0.03 µg/mL

B4: Ly1965 (bispecific antibody)
chain 1: QVQLVQSGAEVKKPGASVKVSCKASGYTFTSYVMHWVRQKPGQGLEWIGYINPYNEGTESTDKFKGRATMTSDKSTSTVYMELSSLRSEDTAVYYCASIYYGYEGTYFGVWGQGTLVTVSSASTKGPSVFPLAPSSKSTSGGTAALGCLVKDYFPEPVTVSWNSGALTSGVHTFPAVLQSSGLYSLSSVVTVPSSSLGTQTYICNVNHKPSNTKVDKKVEPKSCGGGGSGGGGSGGGGSGGGGSEVQLVESGGGLVQPGGSLRLSCAASGFTFSTYAMNWVRQAPGKGLEWVGRIRSKYNNYATYYADSVKGRFTISRDDSKNSLYLQMNSLKTEDTAVYYCVRHGNFGNSYVSWFAYWGQGTLVTVSSGGGGSDKTHTCPPCPAPEAAGPSVFLFPPKPKDTLMISRTPEVTCVVVDVSHEDPEVKFNWYVDGVEVHNAKTKPREEQYNSTYRVVSVLTVLHQDWLNGKEYKCKVSNKALPAPIEKTISKAKGQPREPQVYTLPPSREEMTKNQVSLWCLVKGFYPSDIAVEWESNGQPENNYKTTPPVLDSDGSFFLYSKLTVDKSRWQQGNVFSCSVMHEALHNHYTQKSLSLSPG
chain 2: QVQLVQSGAEVKKPGASVKVSCKASGYTFTSYVMHWVRQKPGQGLEWIGYINPYNEGTESTDKFKGRATMTSDKSTSTVYMELSSLRSEDTAVYYCASIYYGYEGTYFGVWGQGTLVTVSSASTKGPSVFPLAPSSKSTSGGTAALGCLVKDYFPEPVTVSWNSGALTSGVHTFPAVLQSSGLYSLSSVVTVPSSSLGTQTYICNVNHKPSNTKVDKKVEPKSCGGGGSGGGGSGGGGSGGGGSQAVVTQEPSLTVSPGGTVTLTCRSSTGAVTTSNYANWVQQKPGQAPRGLIGGTNKRAPWTPARFSGSLLGGKAALTITGAQAEDEADYYCALWYSNLWVFGGGTKLTVLGGGGSDKTHTCPPCPAPEAAGPSVFLFPPKPKDTLMISRTPEVTCVVVDVSHEDPEVKFNWYVDGVEVHNAKTKPREEQYNSTYRVVSVLTVLHQDWLNGKEYKCKVSNKALPAPIEKTISKAKGQPREPQVYTLPPSREEMTKNQVSLSCAVKGFYPSDIAVEWESNGQPENNYKTTPPVLDSDGSFFLVSKLTVDKSRWQQGNVFSCSVMHEALHNRFTQKSLSLSPG
light: EIVLTQSPATLSLSPGERATLSCRASSSVSYMHWYQQKPGQAPRPWIYATSNLASGIPARFSGSRSGTDYTLTISSLEPEDFAVYYCQQWSSNTLTFGGGTKVEIKRTVAAPSVFIFPPSDEQLKSGTASVVCLLNNFYPREAKVQWKVDNALQSGNSQESVTEQDSKDSTYSLSSTLTLSKADYEKHKVYACEVTHQGLSSPVTKSFNRGEC
notes: B7H3 Fabs, central CD3 Fv
Question: How did the EC50 (CD3) turn out when B4 was run?
Answer: 0.419 µg/mL

B5: Ly2434 (bispecific antibody, human IgG1, kappa)
chain 1: QVQLVQSGAEVKKPGASVKVSCKASGYTFTSYVMHWVRQKPGQGLEWIGYINPYNEGTESTDKFKGRATMTSDKSTSTVYMELSSLRSEDTAVYYCASIYYGYEGTYFGVWGQGTLVTVSSASTKGPSVFPLAPSSKSTSGGTAALGCLVKDYFPEPVTVSWNSGALTSGVHTFPAVLQSSGLYSLSSVVTVPSSSLGTQTYICNVNHKPSNTKVDKKVEPKSCDKTHTCPPCPAPEAAGPSVFLFPPKPKDTLMISRTPEVTCVVVDVSHEDPEVKFNWYVDGVEVHNAKTKPREEQYNSTYRVVSVLTVLHQDWLNGKEYKCKVSNKALPAPIEKTISKAKGQPREPQVYTLPPSREEMTKNQVSLWCLVKGFYPSDIAVEWESNGQPENNYKTTPPVLDSDGSFFLYSKLTVDKSRWQQGNVFSCSVMHEALHNHYTQKSLSLSPGGGGGSGGGGSGGGGSGGGGSEVQLVESGGGLVQPGGSLRLSCAASGFTFTNYGLHWVRQAPGKGLEWVSSISPSGGVTYYRDSVKGRFTISRDNSKNTLYLQMNSLRAEDTAVYYCAKPFLGWGGANWIAHWGQGTLVTVSS
chain 2: QVQLVQSGAEVKKPGASVKVSCKASGYTFTSYVMHWVRQKPGQGLEWIGYINPYNEGTESTDKFKGRATMTSDKSTSTVYMELSSLRSEDTAVYYCASIYYGYEGTYFGVWGQGTLVTVSSASTKGPSVFPLAPSSKSTSGGTAALGCLVKDYFPEPVTVSWNSGALTSGVHTFPAVLQSSGLYSLSSVVTVPSSSLGTQTYICNVNHKPSNTKVDKKVEPKSCDKTHTCPPCPAPEAAGPSVFLFPPKPKDTLMISRTPEVTCVVVDVSHEDPEVKFNWYVDGVEVHNAKTKPREEQYNSTYRVVSVLTVLHQDWLNGKEYKCKVSNKALPAPIEKTISKAKGQPREPQVYTLPPSREEMTKNQVSLSCAVKGFYPSDIAVEWESNGQPENNYKTTPPVLDSDGSFFLVSKLTVDKSRWQQGNVFSCSVMHEALHNRFTQKSLSLSPGGGGGSGGGGSGGGGSGGGGSDIQMTQSPSSLSASVGDRVTITCLASEDISNDLAWYQQKPGKAPKLLIYFVDRLLDGVPSRFSGSGSGTDFTLTISSLQPEDFATYYCQQSYKYPPTFGQGTKLEIK
light: B4 light
notes: B7H3/CD40: two B7H3 Fabs, terminal CD40 Fv (TM559)
Question: Does B5 bind (B7H3)?
Answer: binds
